# Laboratory results: the supplement of paper PMC7125110
# ± gives the standard error. This sample holds only a part of the variants without activity.
# B1: glmS ribozyme (parent)
# chain: AUAAAAGCGCCAGAACUACAGAAAUGUAGUUGACGAGGAGGAGGUUUAUCGAAUUUUCGGCGGAUGCCUCCAAA
# Columns and labels:
# Conditions in all cases: with glucosamine-6-phosphate
# [1] = variants of: B1; assay: self-cleavage kobs at 40 uM GlcN6P; higher = faster cleavage; RNA array
# Method in brief: (§1)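 Using a hybridised Cy3 probe at 37 °C, barcoded ribozyme variants transcribed in situ by E. coli RNA polymerase on sequenced MiSeq chips were monitored across tiles imaged over ~14 h. The flow contained glucosamine-6-phosphate from 40 μM to 10 mM in HEPES/KCl/Mg(OAc)2 buffer. Signals were normalised to baseline and to non-cleaving reference variants before per-tile medians were fit to one- or two-exponential decays to yield kobs. Weighted Michaelis–Menten fits across concentrations gave kcat and KM.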
# [2] = variants of: B1; assay: self-cleavage kobs at 10000 uM GlcN6P; higher = faster cleavage; RNA array
# Method in brief: as §1
# [3] = variants of: B1; assay: self-cleavage kobs at 160 uM GlcN6P; higher = faster cleavage; RNA array
# Method in brief: as §1
# [4] = variants of: B1; assay: self-cleavage kobs at 640 uM GlcN6P; higher = faster cleavage; RNA array
# Method in brief: as §1
# [5] = variants of: B1; assay: self-cleavage kobs at 2500 uM GlcN6P; higher = faster cleavage; RNA array
# Method in brief: as §1
Variant,self-cleavage kobs at 40 uM GlcN6P [1] [s⁻¹],self-cleavage kobs at 10000 uM GlcN6P [2] [s⁻¹],self-cleavage kobs at 160 uM GlcN6P [3] [s⁻¹],self-cleavage kobs at 640 uM GlcN6P [4] [s⁻¹],self-cleavage kobs at 2500 uM GlcN6P [5] [s⁻¹]
A15G U30G A33G A48C,< 1e-05,,,,
G44A A48U C67A,< 1e-05,0.000216 ± 5.2e-05,,,
U31C G35U A39C G44U U55A,< 1e-05,< 1e-05,< 1e-05,< 1e-05,< 1e-05
G32C C34U,< 1e-05,< 1e-05,< 1e-05,< 1e-05,< 1e-05
C8A G43U,< 1e-05,< 1e-05,,,< 1e-05
A53U U54G C71A,9.49e-05 ± 2.8e-05,0.00478 ± 0.0013,,,
C10G A14C C70U,< 1e-05,,,,
C19A G43U,< 1e-05,,,< 1e-05,
A36U G51A,< 1e-05,< 1e-05,< 1e-05,,
A14G C68U,0.000235 ± 1.9e-05,0.0159 ± 0.0026,0.000503 ± 6.4e-05,0.00222 ± 0.00018,0.00412 ± 0.00051
A6C C61U,< 1e-05,< 1e-05,< 1e-05,,
U30A U57G U65G,< 1e-05,,,,
U30G A52C,< 1e-05,,< 1e-05,< 1e-05,< 1e-05
C8G U31C G35C,< 1e-05,< 1e-05,,,
A12G C16A U30G A36G,< 1e-05,,,,
U49A G51A U57A C58G,< 1e-05,< 1e-05,,,
C16A G44C C50A,< 1e-05,< 1e-05,,,
G7U A14G G32C A39U,< 1e-05,,,,
A12C A15C A42U U57G C61G C71U,< 1e-05,,< 1e-05,,< 1e-05
U30A A53C G60U,< 1e-05,,< 1e-05,< 1e-05,< 1e-05
G35C U49C,< 1e-05,,,< 1e-05,
U31C C34G G37A A42U U47A A52U,< 1e-05,< 1e-05,,,
A12G A36C,< 1e-05,,< 1e-05,< 1e-05,< 1e-05
U31G U47C,2.84e-05 ± 1.3e-05,,,0.000197 ± 4.8e-05,0.000501 ± 0.00015

Variant,self-cleavage kobs at 40 uM GlcN6P [1] [s⁻¹],self-cleavage kobs at 10000 uM GlcN6P [2] [s⁻¹],self-cleavage kobs at 160 uM GlcN6P [3] [s⁻¹],self-cleavage kobs at 640 uM GlcN6P [4] [s⁻¹],self-cleavage kobs at 2500 uM GlcN6P [5] [s⁻¹]
A36C G44U U54G G66A C71A,< 1e-05,< 1e-05,,,
C34G A42U,< 1e-05,< 1e-05,< 1e-05,< 1e-05,< 1e-05
G35A U49G,< 1e-05,,,,
U45G C50U A64G,< 1e-05,,,< 1e-05,
G7A C10G C50U,< 1e-05,,,,
G9A U47C G51U G63A,< 1e-05,< 1e-05,,,< 1e-05
C11G G44U A48C C50A G59U G62C,< 1e-05,< 1e-05,,,
C34A A42G,< 1e-05,,< 1e-05,< 1e-05,< 1e-05
G9U G29A U30A C67U,< 1e-05,,,,
U54G C71A,0.00016 ± 3.2e-05,0.00496 ± 0.001,,,0.00157 ± 0.00049
A14C C68U C71U,< 1e-05,,,,
A12U A14G,0.00336 ± 0.00044,,0.00737 ± 0.0027,0.0265 ± 0.0078,
G7C A42G,< 1e-05,< 1e-05,< 1e-05,< 1e-05,< 1e-05
G51A U65G,< 1e-05,< 1e-05,< 1e-05,,
G32C A39G,< 1e-05,0.000101 ± 1.4e-05,< 1e-05,,3.52e-05 ± 1.2e-05
C8A G38C,< 1e-05,< 1e-05,< 1e-05,< 1e-05,
A6C A33G,< 1e-05,< 1e-05,,< 1e-05,
A15C A36C C71U,< 1e-05,< 1e-05,,,
U54A C61U G62A,< 1e-05,< 1e-05,,< 1e-05,
U55A G60C,< 1e-05,,,< 1e-05,
G63A,< 1e-05,< 1e-05,,< 1e-05,
G41U G44C,< 1e-05,< 1e-05,< 1e-05,< 1e-05,< 1e-05
U47A U57G,< 1e-05,4.75e-05 ± 8.7e-06,,,
U46G U47G G59A U65G,< 1e-05,,,,

Variant,self-cleavage kobs at 40 uM GlcN6P [1] [s⁻¹],self-cleavage kobs at 10000 uM GlcN6P [2] [s⁻¹],self-cleavage kobs at 160 uM GlcN6P [3] [s⁻¹],self-cleavage kobs at 640 uM GlcN6P [4] [s⁻¹],self-cleavage kobs at 2500 uM GlcN6P [5] [s⁻¹]
A6U C11G U46G C68A,< 1e-05,,,< 1e-05,< 1e-05
C34G U54A,< 1e-05,< 1e-05,< 1e-05,< 1e-05,< 1e-05
U30G C70U,0.000299 ± 3.2e-05,0.00516 ± 0.00081,0.000471 ± 8.6e-05,0.00108 ± 0.00014,0.00367 ± 0.00096
A12G C58U,< 1e-05,6.35e-05 ± 8.1e-06,,,1.67e-05 ± 7.9e-06
A14U G41C C70G,0.000998 ± 0.00029,0.0658 ± 0.026,0.00172 ± 0.00056,0.00931 ± 0.0023,0.0459 ± 0.018
G41A G44A,< 1e-05,< 1e-05,< 1e-05,,< 1e-05
G32U G41A G66C C68G,< 1e-05,< 1e-05,< 1e-05,,< 1e-05
A12G C50U G59U G60A,< 1e-05,< 1e-05,,,
A14U A33C G35C U55C,< 1e-05,< 1e-05,,,
C50G C58A C70U,9.84e-05 ± 1.6e-05,0.000117 ± 2.1e-05,,,0.000176 ± 4e-05
G32A A36C A42G C70G,< 1e-05,< 1e-05,,,
A12U U49A,< 1e-05,,< 1e-05,,
G7C G35U,< 1e-05,,< 1e-05,,< 1e-05
A39U U54G U55G,0.000181 ± 6.2e-05,,,0.00525 ± 0.0012,0.0171 ± 0.0034
A12U G62C,< 1e-05,< 1e-05,< 1e-05,< 1e-05,< 1e-05
G38C G41U G60C,< 1e-05,,,,
G41A A64C,< 1e-05,< 1e-05,< 1e-05,< 1e-05,< 1e-05
C11A U45C,< 1e-05,,,< 1e-05,
C11U A36G C50G,8.31e-05 ± 2.8e-05,4.94e-05 ± 1.5e-05,,0.000352 ± 0.00014,
U30G G51A,< 1e-05,,< 1e-05,< 1e-05,
A48G G60C C61G,< 1e-05,,,,
A15G G29U U56G G63A,< 1e-05,,,,
G32C U45G U65A,< 1e-05,< 1e-05,,< 1e-05,
G35C G41U G63U,< 1e-05,,,,

Variant,self-cleavage kobs at 40 uM GlcN6P [1] [s⁻¹],self-cleavage kobs at 10000 uM GlcN6P [2] [s⁻¹],self-cleavage kobs at 160 uM GlcN6P [3] [s⁻¹],self-cleavage kobs at 640 uM GlcN6P [4] [s⁻¹],self-cleavage kobs at 2500 uM GlcN6P [5] [s⁻¹]
A6C A14C U45G U57C,< 1e-05,< 1e-05,,,
G32A C61G,< 1e-05,,,,
G32C A36G C61U U69A,< 1e-05,,,,
A36C C50G C70U,0.000435 ± 0.00014,0.000831 ± 0.00026,,,0.00027 ± 0.0001
A14G C34U C50G C68G,7.72e-05 ± 1.6e-05,,,,
G62C G63A,< 1e-05,,< 1e-05,< 1e-05,< 1e-05
C8A A36C,< 1e-05,< 1e-05,< 1e-05,,< 1e-05
A48U C68A,< 1e-05,,,< 1e-05,
C10U G13U,< 1e-05,< 1e-05,< 1e-05,< 1e-05,< 1e-05
C8G A36U G60C,< 1e-05,< 1e-05,,,
G35U A53U C61G C68G,0.000579 ± 0.00022,0.000516 ± 0.0002,,,
U30G A48C C70G,< 1e-05,,,,
U46A C50G,< 1e-05,< 1e-05,,,< 1e-05
G41C G44A,< 1e-05,< 1e-05,< 1e-05,< 1e-05,
A42G U69A,0.000758 ± 0.00012,,0.000231 ± 0.00011,0.00094 ± 0.00029,0.000947 ± 0.0003
G37C G63A,< 1e-05,< 1e-05,,< 1e-05,< 1e-05
U47C A53U U56A G59C,< 1e-05,< 1e-05,,< 1e-05,< 1e-05
A12U C50G G59U U69C,0.000143 ± 4.1e-05,0.000187 ± 4.7e-05,,,8.19e-05 ± 3e-05
G13A A36G,< 1e-05,< 1e-05,< 1e-05,< 1e-05,< 1e-05
A42G A52G U65G,< 1e-05,0.000346 ± 8.1e-05,,,8.47e-05 ± 2.8e-05
C8A G29A G51U,< 1e-05,< 1e-05,,,
